Data reported in patent US20200369755A1 (PROTHENA BIOSCIENCES, published 2020).
Where no end group is shown, it is not given here.

Legend:
[1] = biological target: T1, biotinylated tau peptide, amino acid residues 199-213 of SEQ ID NO:3 (human, also: biotinylated, site not given here); test: peptide ELISA, epitope mapping of hybridoma positives
T1 construct: One of the overlapping peptides spanning 4R0N human tau
T1 peptide: KSKIGSTENLKHQPG
Description: (§1) Additional peptides were used to model potential post-translational modifications of the C- and N-terminal ends of the protein.
(§2) Biotinylated peptides were bound to separate wells of a streptavidin-coated ELISA plate. The plate was blocked and treated with murine 3D6, followed by incubation with a horseradish peroxidase-conjugated anti-mouse antibody. After thorough washing, OPD was applied to the plate and allowed to develop. The plate was read at 450 nm absorbance. Background subtraction was performed with absorbance values from wells containing no primary antibody, and a threshold for positive binding was set to 0.2 absorbance units. […] (FIG. 1)

[2] = biological target: T2, biotinylated tau peptide, amino acid residues 262-276 of SEQ ID NO:3 (human, also: biotinylated, site not given here); test: as above
T2 construct: One of the overlapping peptides spanning 4R0N human tau
T2 peptide: SKCGSLGNIHHKPGG
Description: as §1, §2

[3] = biological target: biotinylated recombinant tau (UniProt P10636-6 1-383, limits assumed, biotinylated); test: competition ELISA: inhibition of biotinylated tau binding to plate-bound low molecular weight heparin
biotinylated recombinant tau, sequence (P10636 other isoform, or with tags, fused parts or gaps limits assumed): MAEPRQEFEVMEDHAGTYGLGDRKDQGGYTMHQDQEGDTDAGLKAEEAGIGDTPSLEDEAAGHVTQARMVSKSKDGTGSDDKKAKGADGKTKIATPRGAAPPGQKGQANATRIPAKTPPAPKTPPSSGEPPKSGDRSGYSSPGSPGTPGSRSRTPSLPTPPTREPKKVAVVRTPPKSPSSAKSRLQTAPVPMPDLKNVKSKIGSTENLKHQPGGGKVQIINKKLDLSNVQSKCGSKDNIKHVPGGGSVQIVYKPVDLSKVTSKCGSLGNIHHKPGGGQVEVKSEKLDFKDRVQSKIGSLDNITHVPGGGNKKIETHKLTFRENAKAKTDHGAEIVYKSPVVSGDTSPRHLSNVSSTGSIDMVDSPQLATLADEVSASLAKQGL
Description: To test the ability of murine and humanized 3D6 variants to interrupt tau interaction with heparin, ELISA plates coated with low molecular weight heparin were first blocked with 2% BSA in PBS for 2h at room temperature. Plates were washed with TBST. After blocking, plates were incubated with biotinylated recombinant tau along with indicated concentrations of unlabeled antibody in 1% BSA/PBS for one hour at room temperature. Plates were again washed, and then incubated with streptavidin-HRP in 0.1% BSA/PBS for 45 min. Plates were then washed and developed with OPD, and absorbance was measured at 490 nm. Inhibition curves were analyzed using a 4-parameter log fit.

[4] = biological target: T3, tau peptide NVKSKIGSTENLKHQPG (SEQ ID NO:184) (human); test: peptide microarray, 3D6 at 10 ug/ml
T3 construct: Printed on a microarray together with all its single substitution variants; also called probe peptide
T3 peptide: NVKSKIGSTENLKHQPG
Description: The assay exchanged each of the amino acids in the peptide sequence with all 20 amino acids, to determine with a high degree of accuracy the core epitope for 3D6. The microarray was printed with all peptides in triplicate, along with HA control peptides to ensure assay performance. To perform the assay, the array was incubated with 3D6 (10 ug/ml) in blocking buffer, washed with PBS-T, followed by incubation with a goat anti-mouse secondary antibody conjugated to DyLight-680. In addition, the microarray was incubated with anti-HA antibody 12CA5 directly conjugated to DyLight-800. Microarrays were scanned using a LiCor scanner, and intensities of triplicates were averaged.

recombinant human tau = biological target: T4, recombinant human tau (human, UniProt P10636-6 1-383, limits assumed); test: SPR (Biacore T200): antibody captured on an anti-mouse chip, recombinant human tau 10-0.14 nM as analyte, global 1:1 fit
T4 construct: also called human recombinant tau without polyhistidine tag; native, untagged protein
T4 sequence (P10636 other isoform, or with tags, fused parts or gaps limits assumed): as above
Description: Methods: SPR analysis was performed using a Biacore T200 to determine the binding kinetics of murine antibodies to recombinant human tau. To prepare a sensor surface, anti-mouse antibody (GE Life Sciences) was immobilized on sensor chip CM5 via amine coupling, and antibody was captured at a level to ensure maximum binding of 50 RU. Various concentrations of recombinant tau ranging from 10-0.14 nM were passed over the captured ligand at a flow rate of 50 μL/min in running buffer (HBS+0.05% P-20, 1 mg/mL BSA), for 180 sec association and 900 sec dissociation. Data were double-referenced to both an irrelevant sensor not containing antibody ligand, and 0 nM analyte concentration to account for the dissociation of ligand from the capture moiety. Data was then analyzed using a global 1:1 fit.

B1: murine 3D6 monoclonal antibody (antibody, IgG1, V domains shown)
VH: EVQLQQSGADLVRPGALVKLSCKASGFNIKDYYLHWVRQRPEQGLEWIGWIDPENGDTVYDPKFQGKATITADTSSNTAYLQLGSLTSEDTAVYFCSTLDFWGQGTTLTVSS
VL: not shown
notes: Hybridoma-derived mouse antibody; also called m3D6; mouse 3D6
- binding result [1]: binds
- binding result [2]: binds
- IC50 [3]: 0.409 nM
- binding result [4]: binds
- Kd (recombinant human tau): 0.46 nM
- koff (recombinant human tau): 0.00119 s⁻¹
- kon (recombinant human tau): 2.58e+06 M⁻¹ s⁻¹
